The record followed here is patent publication US20170210809A1 (DYAX, published 2017).

The target in test [1] is T1, IGF-1R (insulin-like growth factor 1 receptor) on tumor cells (human, UniProt P08069 31-1367). Kind of test: cell-based or functional assay.
The target of test [2] is T1, IGF-1R (insulin-like growth factor 1 …). Description: FACS on ADRr cells (n = 3), apparent Kd. The procedure: (§1) 1×10⁵ MCF7 cells and 1×10⁵ ADRr cells are incubated at room temperature for 2 hours with the BBA at 2 uM, followed by 12 subsequent 3-fold dilutions. Then using goat anti-HSA-Alexa647 conjugated antibody as the detection antibody, cells are incubated on ice for 40 minutes. Cell binding dissociation constants (measures of binding affinities) of the BBAs on MCF7 and ADRr cells are assessed by FACS and apparent dissociation constants are determined for each BBA. The following results were obtained (also see FIGS. 12a and 12b): […]

Test [3] shares this target. Kind of test: FACS on MCF7 cells (n = 1), apparent Kd.
For test [4], the target named is T2, ErbB3 (HER3) on tumor cells (human, UniProt P21860 20-1342).
T2 construct: whole, on cells; Endogenous receptor on human tumor cell lines
T2 sequence (P21860 20-1342): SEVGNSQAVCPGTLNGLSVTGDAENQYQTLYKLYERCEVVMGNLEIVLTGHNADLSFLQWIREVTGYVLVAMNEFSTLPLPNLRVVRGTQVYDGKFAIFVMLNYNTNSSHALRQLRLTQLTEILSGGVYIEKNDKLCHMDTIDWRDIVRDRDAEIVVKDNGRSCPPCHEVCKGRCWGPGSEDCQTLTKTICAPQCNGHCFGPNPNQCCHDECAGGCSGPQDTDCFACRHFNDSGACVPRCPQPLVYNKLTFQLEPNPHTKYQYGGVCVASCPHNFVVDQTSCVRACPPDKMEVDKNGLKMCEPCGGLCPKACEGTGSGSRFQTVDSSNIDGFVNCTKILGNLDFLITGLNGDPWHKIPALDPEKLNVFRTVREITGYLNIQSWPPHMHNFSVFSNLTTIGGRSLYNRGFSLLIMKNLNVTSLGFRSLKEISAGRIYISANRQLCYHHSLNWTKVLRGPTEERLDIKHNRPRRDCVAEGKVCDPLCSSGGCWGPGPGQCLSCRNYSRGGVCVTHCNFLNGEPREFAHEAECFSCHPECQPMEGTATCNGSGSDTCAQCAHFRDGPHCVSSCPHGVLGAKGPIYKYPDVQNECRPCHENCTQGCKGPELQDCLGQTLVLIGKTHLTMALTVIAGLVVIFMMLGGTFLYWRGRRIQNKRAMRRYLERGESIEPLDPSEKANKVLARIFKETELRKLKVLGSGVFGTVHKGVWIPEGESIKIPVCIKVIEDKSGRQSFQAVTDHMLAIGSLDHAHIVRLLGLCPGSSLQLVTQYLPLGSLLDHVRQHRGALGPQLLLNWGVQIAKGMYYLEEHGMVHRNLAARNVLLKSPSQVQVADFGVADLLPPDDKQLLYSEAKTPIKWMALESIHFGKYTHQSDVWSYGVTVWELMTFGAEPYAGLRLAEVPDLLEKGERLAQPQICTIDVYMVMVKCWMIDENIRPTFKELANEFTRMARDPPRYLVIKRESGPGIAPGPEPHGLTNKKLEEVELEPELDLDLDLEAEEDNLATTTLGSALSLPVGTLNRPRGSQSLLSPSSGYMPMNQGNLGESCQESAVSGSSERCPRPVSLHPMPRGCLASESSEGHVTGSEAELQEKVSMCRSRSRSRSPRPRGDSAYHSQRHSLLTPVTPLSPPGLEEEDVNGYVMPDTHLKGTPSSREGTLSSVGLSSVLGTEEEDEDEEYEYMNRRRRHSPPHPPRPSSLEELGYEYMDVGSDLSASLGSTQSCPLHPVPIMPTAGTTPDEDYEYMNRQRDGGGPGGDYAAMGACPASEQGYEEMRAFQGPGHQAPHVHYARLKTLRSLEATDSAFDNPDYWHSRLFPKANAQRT
Kind of test: FACS on ADRr cells (n = 3), apparent Kd. The procedure: as §1

For test [5], the target named is T2, ErbB3 (HER3) on tumor cells. Kind of test: FACS on MCF7 cells (n = 1), apparent Kd.
For test [6], the target named is T1, IGF-1R (insulin-like growth factor 1 …). Kind of test: FACS on ADRr and MCF7 cells.
Test [7] deals with T2, ErbB3 (HER3) on tumor cells. Kind of test: FACS on ADRr and MCF7 cells.
The target in test [8] is IGF-1R and ErbB3 together on tumor cells (MCF7, ADRr, BXPC3) (human) (UniProt P08069). Kind of test: FACS on ADRr cells (n = 3), apparent Kd.
Sequence of IGF-1R and ErbB3 together on tumor cells (MCF7, ADRr, BXPC3) (human) (P08069 31-1367, chain 1 of 2): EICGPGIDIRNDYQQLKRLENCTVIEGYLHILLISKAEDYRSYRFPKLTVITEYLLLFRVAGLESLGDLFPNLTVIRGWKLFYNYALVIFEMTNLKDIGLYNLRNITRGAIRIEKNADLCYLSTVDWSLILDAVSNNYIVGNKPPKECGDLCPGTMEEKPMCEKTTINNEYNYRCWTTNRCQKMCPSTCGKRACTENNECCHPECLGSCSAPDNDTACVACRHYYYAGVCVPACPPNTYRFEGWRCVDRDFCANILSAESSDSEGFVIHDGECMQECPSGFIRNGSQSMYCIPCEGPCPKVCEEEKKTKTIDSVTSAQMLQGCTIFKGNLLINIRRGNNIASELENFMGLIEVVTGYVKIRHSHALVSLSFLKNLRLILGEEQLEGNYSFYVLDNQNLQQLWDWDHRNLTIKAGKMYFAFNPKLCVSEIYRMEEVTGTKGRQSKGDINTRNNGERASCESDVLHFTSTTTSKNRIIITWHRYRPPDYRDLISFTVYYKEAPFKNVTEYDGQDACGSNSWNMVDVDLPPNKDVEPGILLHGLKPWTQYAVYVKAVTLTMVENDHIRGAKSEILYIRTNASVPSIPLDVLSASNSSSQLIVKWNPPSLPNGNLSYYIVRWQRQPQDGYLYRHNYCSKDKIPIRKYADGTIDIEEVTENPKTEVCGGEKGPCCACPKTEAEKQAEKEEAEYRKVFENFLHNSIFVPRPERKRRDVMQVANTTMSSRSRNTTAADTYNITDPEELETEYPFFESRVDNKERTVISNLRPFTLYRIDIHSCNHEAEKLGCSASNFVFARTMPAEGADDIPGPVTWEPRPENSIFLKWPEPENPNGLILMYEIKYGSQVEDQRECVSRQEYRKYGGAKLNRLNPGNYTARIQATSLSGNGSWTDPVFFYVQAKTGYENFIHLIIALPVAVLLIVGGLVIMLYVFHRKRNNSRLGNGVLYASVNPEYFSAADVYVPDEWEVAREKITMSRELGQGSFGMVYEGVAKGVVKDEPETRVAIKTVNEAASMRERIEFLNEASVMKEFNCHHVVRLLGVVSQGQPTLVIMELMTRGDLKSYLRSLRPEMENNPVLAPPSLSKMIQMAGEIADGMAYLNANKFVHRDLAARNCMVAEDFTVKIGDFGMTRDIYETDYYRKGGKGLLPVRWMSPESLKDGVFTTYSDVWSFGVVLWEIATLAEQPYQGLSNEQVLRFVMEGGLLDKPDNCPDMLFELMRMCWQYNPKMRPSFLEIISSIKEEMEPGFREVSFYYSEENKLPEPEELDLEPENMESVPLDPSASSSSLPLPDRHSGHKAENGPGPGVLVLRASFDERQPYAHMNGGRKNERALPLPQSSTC
Sequence of IGF-1R and ErbB3 together on tumor cells (MCF7, ADRr, BXPC3) (human) (P21860 20-1342, chain 2 of 2, further chain): as the sequence (P21860 20-1342) above
Test [9] shares this target. Kind of test: FACS on MCF7 cells (n = 1), apparent Kd.
Test [10] has as its target T2, ErbB3 (HER3) on tumor cells. Kind of test: FACS binding to ADRr cells, y axis 'GaH-A647 Mean', x axis Ab [nM] (log).
For test [11] the target is unchanged. Description: cell-based or functional assay.

T1 sequence (P08069 31-1367): as the sequence (P08069 31-1367, chain 1 of 2) above

B1: AB5-7 IgG2 (antibody, V domains shown)
VH: EVQLLESGGGLVQPGGSLRLSCAASGFTFSVYPMHWVRQAPGKGLEWVSSISSSGGATRYADSVKGRFTISRDNSKNTLYLQMNSLRAEDTAVYYCAKDFYDILTGNAFDIWGQGTMVTVSS
VL: DIQMTQSPSSFSASTGDRVTITCRASQGISSYLAWYQQKPGKAPKLLIYAASTLQSGVPSRFSGSGSGTDFTLTISSLQPEDSATYYCQQYFTFPLTFGGGTKVEIKR
In the case of B1, the “Ki, inhibition of IGF2-induced pAKT formation (ELISA, MCF7 cells)” value in test [1] is 0.7 nM.

B2: IgG version of SEQ ID NO: 1 (antibody, V domains shown)
VH: B1 VH
VL: B1 VL
B2: the Kd in [2] is 5.1 nM; in test [3] it was 5.6 nM.

B3: IgG version of SEQ ID NO: 33 (antibody, V domains shown)
VH: EVQLLESGGGLVQPGGSLRLSCAASGFTFSAYNMRWVRQAPGKGLEWVSVIYPSGGATRYADSVKGRFTISRDNSKNTLYLQMNSLRAEDTAVYYCARGYYYYGMDVWGQGTLVTVSS
VL: QSVLTQPPSASGTPGQRVTISCSGSDSNIGRNYIYWYQQFPGTAPKLLIYRNNQRPSGVPDRISGSKSGTSASLAISGLRSEDEAEYHCGTWDDSLSGPVFGGGTKLTVLG
With B3, the figures for the Kd in test [4] and in test [5] were 1.2 nM and 0.9 nM, respectively.

B4: ILE-10 (bispecific antibody, human IgG2, kappa)
heavy: EVQLLESGGGLVQPGGSLRLSCAASGFTFSVYPMHWVRQAPGKGLEWVSSISSSGGATRYADSVKGRFTISRDNSKNTLYLQMNSLRAEDTAVYYCAKDFYDILTGNAFDIWGQGTMVTVSSASTKGPSVFPLAPCSRSTSESTAALGCLVKDYFPEPVTVSWNSGALTSGVHTFPAVLQSSGLYSLSSVVTVPSSNFGTQTYTCNVDHKPSNTKVDKTVERKCCVECPPCPAPPVAGPSVFLFPPKPKDTLMISRTPEVTCVVVDVSHEDPEVQFNWYVDGVEVHNAKTKPREEQFNSTFRVVSVLTVVHQDWLNGKEYKCKVSNKGLPAPIEKTISKTKGQPREPQVYTLPPSREEMTKNQVSLTCLVKGFYPSDIAVEWESNGQPENNYKTTPPMLDSDGSFFLYSKLTVDKSRWQQGNVFSCSVMHEALHNHYTQKSLSLSPGKGGGGSGGGGSGGGGSLQEVQLLESGGGLVQPGGSLRLSCAASGFTFSAYNMRWVRQAPGKGLEWVSVIYPSGGATRYADSVKGRFTISRDNSKNTLYLQMNSLRAEDTAVYYCARGYYYYGMDVWGQGTLVTVSSASTGGGGSGGGGSGGGGSQSVLTQPPSASGTPGQRVTISCSGSDSNIGRNYIYWYQQFPGTAPKLLIYRNNQRPSGVPDRISGSKSGTSASLAISGLRSEDEAEYHCGTWDDSLSGPVFGGGTKLTVLS
light: DIQMTQSPSSFSASTGDRVTITCRASQGISSYLAWYQQKPGKAPKLLIYAASTLQSGVPSRFSGSGSGTDFTLTISSLQPEDSATYYCQQYFTFPLTFGGGTKVEIKRTVAAPSVFIFPPSDEQLKSGTASVVCLLNNFYPREAKVQWKVDNALQSGNSQESVTEQDSKDSTYSLSSTLTLSKADYEKHKVYACEVTHQGLSSPVTKSFNRGEC
notes: IgG-linked BBA, designed to be functionally dimeric; the numbers of ILE-10 stand on the line that begins with ILE-11; also called Bs14F3 huIgG2
Take B4: the binding result in test [6] and in test [7] was “binds” in each case. Also, the Kd was 7.1 nM in test [8] and 4.5 nM in [9].

B5: ILE-12 (bispecific antibody, human IgG2, kappa)
heavy: EVQLLESGGGLVQPGGSLRLSCAASGFTFSVYPMHWVRQAPGKGLEWVSSISSSGGATRYADSVKGRFTISRDNSKNTLYLQMNSLRAEDTAVYYCAKDFYDILTGNAFDIWGQGTMVTVSSASTKGPSVFPLAPCSRSTSESTAALGCLVKDYFPEPVTVSWNSGALTSGVHTFPAVLQSSGLYSLSSVVTVPSSNFGTQTYTCNVDHKPSNTKVDKTVERKCCVECPPCPAPPVAGPSVFLFPPKPKDTLMISRTPEVTCVVVDVSHEDPEVQFNWYVDGVEVHNAKTKPREEQFNSTFRVVSVLTVVHQDWLNGKEYKCKVSNKGLPAPIEKTISKTKGQPREPQVYTLPPSREEMTKNQVSLTCLVKGFYPSDIAVEWESNGQPENNYKTTPPMLDSDGSFFLYSKLTVDKSRWQQGNVFSCSVMHEALHNHYTQKSLSLSPGKGGGGSGGGGSGGGGSLQEVQLLESGGGLVQPGGSLRLSCAASGFTFSVYDMYWVRQAPGKGLEWVSYIYSSGGDTDYADSVKGRFTISRDNSKNTLYLQMNSLRAEDTATYYCARASTNSIYDAMDVWGQGTTVTVSSASTGGGGSGGGGSGGGGSDIQMTQSPSSVSASVGDRVTITCRASQDITNWLAWYQQKPGKAPTLLIYDASTLQSGVPSRFSGSGSGTDFTLTISSLQPEDFATYFCQQANGFPLTFGGGTKVEIK
light: B4 light
notes: IgG-linked BBA, designed to be functionally dimeric; the numbers of ILE-12 stand on the line that begins with ILE-13; also called Bs15F3 huIgG2
For B5, the binding result in [6] and in [7] was “binds” throughout. The Kd stood at 0.3 nM in test [8] and 0.6 nM in test [9].

B6: IgG version of SEQ ID NO: 44 (antibody, V domains shown)
VH: EVQLLESGGGLVQPGGSLRLSCAASGFTFSVYDMYWVRQAPGKGLEWVSYIYSSGGDTDYADSVKGRFTISRDNSKNTLYLQMNSLRAEDTATYYCARASTNSIYDAMDVWGQGTTVTVSS
VL: DIQMTQSPSSVSASVGDRVTITCRASQDITNWLAWYQQKPGKAPTLLIYDASTLQSGVPSRFSGSGSGTDFTLTISSLQPEDFATYFCQQANGFPLTFGGGTKVEIK
One may read the EC50 (read off the curve) as the concentration needed to bring the measured effect to its halfway point. A lower EC50 (read off the curve) goes with an effect from little substance. With B6, in test [10], the “EC50 (read off the curve)” value is around 0.3 nM. Also, the Kd in test [4] turned out to be 0.4 nM; in [5], 0.04 nM.

B7: Ab #6 (MM-121) (antibody, INN chains, looked up, V domains shown)
VH: EVQLLESGGGLVQPGGSLRLSCAASGFTFSHYVMAWVRQAPGKGLEWVSSISSSGGWTLYADSVKGRFTISRDNSKNTLYLQMNSLRAEDTAVYYCTRGLKMATIFDYWGQGTLVTVSS
VL: QSALTQPASVSGSPGQSITISCTGTSSDVGSYNVVSWYQQHPGKAPKLIIYEVSQRPSGVSNRFSGSKSGNTASLTISGLQTEDEADYYCCSYAGSSIFVIFGGGTKVTVL
Regarding B7, in test [11], the Ki, inhibition of BTC-induced pErbB3 formation (ELISA, ADRr cells) came out at 1.1 nM and the Ki, inhibition of HRG-induced pErbB3 formation (ELISA, ADRr cells) is 0.1 nM.
